Reference: the DeepSol protein solubility set

assay: soluble on expression in E. coli; label from the status in PepcDB or PDB records

Soluble on expression in E. coli, soluble:
GSHMASMLPEETILDKLPKDFQERITSSKWKDRVEALEEFWDSVLSQTKKLKSTSQNYSNLLGIYGHIIQKDANIQAVALAAQSVELICDKLKTPGFSKDYVSLVFTPLLDRTKEKKPSVIEAIRKALLTICKYYDPLASSGRNEDMLKDILEHMKHKTPQIRMECTQLFNASMKEEKDGYSTLQRYLKDEVVPIVIQIVNDTQPAIRTIGFESFAILIKIFGMNTFVKTLEHLDNLKRKKIEETVKTL
GSHMSAGIGESRTELLTWLNGLLNLNYKKIEECGTGAAYCQIMDSIYGDLPMNRVKFNATAEYEFQTNYKILQSCFSRHGIEKTVYVDKLIRCKFQDNLEFLQWLKKHWIRHKDESVYDPDARRKYR
GSHMSRLLEDFRNQRYPNLQLRDLANHIVEFSQDQHGSRFIQQKLERATAAEKQMVFSEILAAAYSLMTDVFGNYVIQKFFEFGTPEQKNTLGMQVKGHVLQLALQMYGCRVIQKALESISPEQQQEIVHELDGHVLKCVKDQNGNHVVQKCIECVDPVALQFIINAFKGQVYSLSTHPYGCRVIQRILEHCTAEQTTPILDELHEHTEQLIQDQYGNYVIQHVLEHGKQEDKSILINSVRGKVLVLSQHKFASNVVEKCVTHATRGERTGLIDEVCTFNDNALHVMMKDQYANYVVQKMIDVSEPTQLKKLMTKIRKNMAAL
GSHMSSLEKRLGKNEYFIITKSSPVRAILNDFAANYSIPVFISSSVNDDFSGEIKNEKPVKVLEKLSKLYHLTWYYDENILYIYKTNEISRSIITPTYLDIDSLLKYLSDTISVNKNSCNVRKITTFNSIEVRGVPECIKYITSLSESLDKEAQSK
GSHMVPISFVFNRFPRMVRDLAKKMNKEVNFIMRGEDTELDRTFVEEIGEPLLHLLRNAIDHGIEPKEERIAKGKPPIGTLILSARHEGNNVVIEVEDDGRGIDKEKIIRKAIEKGLIDESKAATLSDQEILNFLFVPGFSTKEKVSEVSGRGVGMDVVKNVVESLNGSISIESEKDKGTKVTIRLPLTLAIIQALLVKVNNLVYAIPIANIDTILSISKEDIQRVQDRDVIVIRGEVIPVYRLWEVLQIEHKEELEEMEAVIVRVGNRKYGIVVDDLLGQDDIVIKSLGKVFSEVKEFSGAAILGDGSIALIINVSGIV
GSHNSHMKLQEVEIRNKDLEGQLSEMEQRLEKSQSEQDAFRSNLKTLLEILDGKIFELTELRDNLAKLLECS
GSLPEVLQAPVGSSILVQCHYRLQDVKAQKVWCRFLPEGCQPLVSSAVDRRAPAGRRTFLTDLGGGLLQVEMVTLQEEDAGEYGCMVDGARGPQILHRVSLNILPP
GSMDQNTTEPVAATETLAEVPEHVLRGLPEEVRLFPSAVDKTRIGVWATKPILKGKKFGPFVGDKKKRSQVKNNVYMWEVYYPNLGWMCIDATDPEKGNWLRYVNWACSGEEQNLFPLEINRAIYYKTLKPIAPGEELLVWYDGEDNPEIAAAIEEERASARS
GSMNPEEKTVMLYNEYAEQAVLGSILTEPELIKECPLTPEHFSPGKHFNIYFTMQDLDRKGQSVDFTSIAARVGEKLPQLGGFGYLTELAASVASTTTFKQHCQTVSEYFQKRKAISIAQQIIENVNESDDGPVKPIQEAVSELMEIEASGTDDDDGSIDEALVTVYEEIESADGNITGVPSGFTELDRMTYGYKRRNFVLIAARPSMGKTAFALKQAKNMSDNDDVVNLHSLEMGKKENIKRLIVTAGSINAQKIKAARRDFASEDWGKLSMAIGEISNSNINIFDKAGQSVNYIWSKTRQTKRKNPGKRVIVMIDYLQLLEPAKANDSRTNQISQISRDLKKMARELDVVVIALSQLSRQVEQRQDKRPMLSDLRESGQLEQDADIIEFLYRDDYYDKESESKNIVEVIIAKHRDGPVGTVSLAFIKEYGNFVNLERRFDDR
GSMTDGDYDYLIKLLALGDSGVGKTTFLYRYTDNKFNPKFITTVGIDFREKRVVYDTQGADGASGKAFKVHLQLWDTAGLERFRSLTTAFFRDAMGFLLMFDLTSQQSFLNVRNWMSQLQANAYCENPDIVLIGNKADLPDQREVNERQARELAEKYGIPYFETSAATGQNVEKSVETLLDLIMKRMEKCVEKTQVPDTVNGGNSGKLDGEKPAEKKCAC
GSMYQLQFINLVYDTTKLTHLEQTNINLFIGNWSNHQLQKSICIRHGDDTSHNQYHILFIDTAHQRIKFSSFDNEEIIYILDYDDTQHILMQTSSKQGIGTSRPIVYERLV
GSPDPEIFRQRFRQFGYQDSPGPREAVSQLRELCRLWLRPETHTKEQILELVVLEQFVAILPKELQTWVRDHHPENGEEAVTVLEDLESELDD
GSPEFPPTIQEIKQKIDSYNSREKHCLGMKLSEDGTYTGFIKVHLKLRRPVTVPAGIRPQSIYDAIKEVNPAATTDKRTSFYLPLDAIKQMHISSTTTVSEVIQGLLDKFMVVDNPQKFALFKRIHKDGQVLFQKLSIADYPLYLRLLAGPDTDVLSFVLKEN
GSPGIHMLGGSSDAGLATAAARGQVETVRQLLEAGADPNALNRFGRRPIQVMMMGSAQVAELLLLHGAEPNCADPATLTRPVHDAAREGFLDTLVVLHRAGARLDVCDAWGRLPVDLAEEQGHRDIARYLHAATGD
GSQDVKCSLGYFPCGNITKCLPQLLHCNGVDDCGNQADEDNCG
GSRRLLEETLAPFRLNHDQLAAVQAQMRKAMAKGLRGEASSLRMLPTFVRATPDGSERGDFLALDLGGTNFRVLLVRVTTGVQITSEIYSIPETVAQGSGQQLFDHIVDCIVDFQQKQGLSGQSLPLGFTFSFPCRQLGLDQGILLNWTKGFKASDCEGQDVVSLLREAITRRQAVELNVVAIVNDTVGTMMSCGYEDPRCEIGLIVGTGTNACYMEELRNVAGVPGDSGRMCINMEWGAFGDDGSLAMLSTRFDASVDQASINPGKQRFEKMISGMYLGEIVRHILLHLTSLGVLFRGQQIQRLQTRDIFKTKFLSEIESDSLALRQVRAILEDLGLPLTSDDALMVLEVCQAVSQRAAQLCGAGVAAVVEKIRENRGLEELAVSVGVDGTLYKLHPRFSSLVAATVRELAPRCVVTFLQSEDGSGKGAALVTAVACRLAQLTR
GSRSEPAKVVDIRIDTSAERKPISPYIYGSNQELDATVTAKRFGGNRTTGYNWENNFSNAGSDWLHYSDTYLLEDGGVPKGEWSTPASVVTTFHDKALSKNVPYTLITLQAAGYVSADGNGPVSQEETAPSSRWKEVKFEKGAPFSLTPDTEDDYVYMDEFVNYLVNKYGNASTPTGIKGYSIDNEPALWSHTHPRIHPDNVTAKELIEKSVALSKAVKKVDPYAEIFGPALYGFAAYETLQSAPDWGTEGEGYRWFIDYYLDKMKKASDEEGKRLLDVLDVHWYPEARGGGERICFGADPRNIETNKARLQAPRTLWDPTYIEDSWIGQWKKDFLPILPNLLDSIEKYYPGTKLAITEYDYGGGNHITGGIAQADVLGIFGKYGVYLATFWGDASNNYTEAGINLYTNYDGKGGKFGDTSVKCETSDIEVSSAYASIVGEDDSKLHIILLNKNYDQPTTFNFSIDSSKNYTIGNVWAFDRGSSNITQRTPIVNIKDNTFTYTVPALTACHIVLEAAEP
GSSDVQYTEVQVSSAESHKDLGKKDTETVYSEVRKAVPDAVESRYSRTEGSLDGT
GSSGSSGMPMTLGYWDIRGLAHAIRLFLEYTDSSYEEKRYTMGDAPDYDQSQWLNEKFKLGLDFPNLPYLIDGSHKITQSNAILRYLGRKHNLCGETEEERIRVDILENQLMDNRMVLARLCYNADFEKLKPGYLEQLPGMMRLYSEFLGKRPWFAGDKITFVDFIAYDVLERNQVFEAKCLDAFPNLKDFIARFEGLKKISDYMKTSRFLPRPMFTKMATWGSNSGPSSG
GSSGSSGTRTYDREGFKKRAACLCFRSEQEDEVLLVSSSRYPDQWIVPGGGMEPEEEPGGAAVREVYEEAGVKGKLGRLLGIFENQDRKHRTYVYVLTVTEILEDWEDSVNIGRKREWFKVEDAIKVLQCHKPVHAEYLEKLKLG
